For assay [1], the target named is CAT-2200 lambda light chain K129T_V133D. As to the kind of experiment: LCCA, SPR.
The target is the same in assay [2]. As to the kind of experiment: LCCA, SPR. The source holds these as a separate data set.
For assay [3], the target named is Pertuzumab kappa light chain V133D_Q160E. Briefly: LCCA, SPR.
Assay [4] addresses Pertuzumab kappa light chain V133D. As to the kind of experiment: LCCA, SPR.
Assay [5] concerns the target Pertuzumab kappa light chain V133D_Q160E. Briefly: LCCA, SPR. The source holds these as a separate data set.
Assay [6] has as its target CAT-2200 lambda light chain T131K_V133S. As to the kind of experiment: LCCA, SPR.
In assay [7] the target is Pertuzumab kappa light chain Q124E_V133D_L135W. Briefly: LCCA, SPR tag read-out.
Assay [8] addresses CAT-2200 lambda light chain E124Q_T131K_V133S. Briefly: LCCA, SPR tag read-out.
Assay [9] addresses Pertuzumab kappa light chain S131D_V133G_T178F. As to the kind of experiment: LCCA, SPR.
For assay [10], the target named is Pertuzumab kappa light chain S131E_V133G_T178F. Briefly: LCCA, SPR.
In assay [11] the target is Pertuzumab kappa light chain S176E_T178E. As to the kind of experiment: LCCA, SPR.
Assay [12] addresses Pertuzumab kappa light chain V133I_S176D_T178E. As to the kind of experiment: LCCA, SPR.
Assay [13] addresses CAT-2200 lambda light chain E124Q_T131K. As to the kind of experiment: LCCA, SPR.
The target of assay [14] is CAT-2200 lambda light chain E124Q_T131R. Briefly: LCCA, SPR.
Assay [15] concerns the target Pertuzumab kappa light chain S131D_V133G_T178F. As to the kind of experiment: LCCA, SPR. This is another data set of the same source.
The target of assay [16] is Pertuzumab kappa light chain S131E_V133G_T178F. As to the kind of experiment: LCCA, SPR. The source holds these as a separate data set.
Assay [17] addresses Pertuzumab kappa light chain S176E_T178E. As to the kind of experiment: LCCA, SPR. The source holds these as a separate data set.
Assay [18] addresses CAT-2200 lambda light chain E124Q_T131R. As to the kind of experiment: LCCA, SPR. This is another data set of the same source.
Assay [19] has as its target CAT-2200 lambda light chain Y178K. Briefly: LCCA.
In assay [20] the target is Pertuzumab kappa light chain L135W_S176E_T178E. As to the kind of experiment: LCCA.
Assay [21] addresses CAT-2200 lambda light chain E124Q_T131R. Briefly: LCCA, SPR tag read-out.
In assay [22] the target is Pertuzumab kappa light chain S131D_V133G_L135W_T178F. As to the kind of experiment: LCCA, SPR tag read-out.
For assay [23], the target named is Pertuzumab kappa light chain V133I_L135W_S176D_T178E. Briefly: LCCA, SPR tag read-out.
In assay [24] the target is CAT-2200 lambda light chain E124Q_T131R. As to the kind of experiment: LCCA, SPR tag read-out. This is another data set of the same source.
Assay [25] addresses Pertuzumab kappa light chain V133L_S176D_T178E. As to the kind of experiment: LCCA, SPR.
The target is the same in assay [26]. As to the kind of experiment: LCCA, SPR. The source holds these as a separate data set.
The target in assay [27] is CAT-2200 lambda light chain E124Q_T131R. As to the kind of experiment: LCCA, SPR. The source holds these as a separate data set.
Assay [28] has as its target Pertuzumab light chain (kappa) V133D, HA-tagged. Briefly: LCCA.
For assay [29], the target named is Pertuzumab light chain (kappa) V133D_Q160E, HA-tagged. Briefly: LCCA.
The target of assay [30] is Pertuzumab light chain (kappa) V133D, HA-tagged. As to the kind of experiment: LCCA. This is another data set of the same source.
For assay [31], the target named is Pertuzumab light chain (kappa) V133D_Q160E, HA-tagged. As to the kind of experiment: LCCA. This is another data set of the same source.
Assay [32] addresses Pertuzumab light chain (kappa) V133D, HA-tagged. As to the kind of experiment: LCCA. The source holds these as a separate data set.
Assay [33] has as its target Pertuzumab light chain (kappa) V133D_Q160E, HA-tagged. As to the kind of experiment: LCCA. This is another data set of the same source.
Assay [34] concerns the target CAT-2200 light chain (lambda) T131K_V133S, FLAG-tagged. Briefly: LCCA.
Assay [35] deals with CAT-2200 light chain (lambda) E124Q_T131K, FLAG-tagged. As to the kind of experiment: LCCA.
Assay [36] has as its target CAT-2200 light chain (lambda) E124Q_T131K_V133S, FLAG-tagged. Briefly: LCCA.
Assay [37] addresses Pertuzumab light chain (kappa) V133D, HA-tagged. As to the kind of experiment: LCCA. This is another data set of the same source.
In assay [38] the target is Pertuzumab light chain (kappa) V133D_Q160E, HA-tagged. As to the kind of experiment: LCCA. The source holds these as a separate data set.
In assay [39] the target is CAT-2200 light chain (lambda) E124Q_T131K_V133S, FLAG-tagged. Briefly: LCCA. The source holds these as a separate data set.
Assay [40] has as its target CAT-2200 light chain (lambda) T131K_V133S, FLAG-tagged. As to the kind of experiment: LCCA. The source holds these as a separate data set.
In assay [41] the target is Pertuzumab light chain (kappa) S176D_T178E, HA-tagged. Briefly: LCCA.
In assay [42] the target is Pertuzumab light chain (kappa) S176E_T178E, HA-tagged. Briefly: LCCA.
The target of assay [43] is Pertuzumab light chain (kappa) S131D_V133G_T178F, HA-tagged. As to the kind of experiment: LCCA.
The target in assay [44] is Pertuzumab light chain (kappa) S176E_T178E, HA-tagged. As to the kind of experiment: LCCA. The source holds these as a separate data set.
The target of assay [45] is Pertuzumab light chain (kappa) S131D_V133G_T178F, HA-tagged. As to the kind of experiment: LCCA. This is another data set of the same source.
For assay [46], the target named is Pertuzumab light chain (kappa) S131E_V133G_T178F, HA-tagged. Briefly: LCCA.
In assay [47] the target is Pertuzumab light chain (kappa) S176E_T178E, HA-tagged. Briefly: LCCA. This is another data set of the same source.
The target of assay [48] is Pertuzumab light chain (kappa) V133I_S176D_T178E, HA-tagged. Briefly: LCCA.
Assay [49] concerns the target Pertuzumab light chain (kappa) V133L_S176D_T178E, HA-tagged. Briefly: LCCA.
The target is the same in assay [50]. Briefly: LCCA. The source holds these as a separate data set.
Assay [51] has the same target. Briefly: LCCA. This is another data set of the same source.
Assay [52] shares this target. As to the kind of experiment: LCCA. The source holds these as a separate data set.
Assay [53] has the same target. Briefly: LCCA. This is another data set of the same source.
The target in assay [54] is Pertuzumab light chain (kappa) V133I_S176D_T178E, HA-tagged. Briefly: LCCA. The source holds these as a separate data set.
The target in assay [55] is Pertuzumab light chain (kappa) V133I_S176E_T178E, HA-tagged. Briefly: LCCA.
For assay [56], the target named is Pertuzumab light chain (kappa) V133L_S176D_T178E, HA-tagged. As to the kind of experiment: LCCA. The source holds these as a separate data set.

Where two headings read alike, the source gives them in different places.

This is an account of results in US20190338048A1.

CAT-2200 Fab heavy chain L143K: the figures for the H1L1:H1L2 normalized median scalar value ln(r1/f1) in assay [1] and in [2] were 0.9 and 1.55, respectively.
Take Pertuzumab Fab heavy chain S186K: the H2L2:H2L1 normalized median ratio in [3] worked out at 74%; in assay [6] it was 26%; in assay [7], 72%; in [8] it was 28%. Besides, the H2L2:H2L1 normalized median scalar value ln(r1/f1) is 1.05 in assay [3], 0.77 in assay [4] and 0.22 in assay [5]. For the same substance, the H2L2:H2L1 median scalar value in assay [7] is 0.96 ln(ratio).
As for Pertuzumab Fab heavy chain S188K, the H2L2:H2L1 normalized median scalar value ln(r1/f1) is 2.22 in assay [9]; 1.67 in assay [10]; 2.75 in [11]; 2.33 in assay [12]; 1.5 in assay [15]; 1.7 in [16]. The H2L2:H2L1 normalized median scalar value ln(r1/f1) in [17] was 2.71. Moreover, the H2L2:H2L1 normalized median ratio in assay [10] amounted to 84%; in [12], 91%; in [13] it was 15%; in assay [14] it was 16%; in assay [16], 85%; in assay [18] it was 9%. The H2L2:H2L1 normalized median ratio in assay [19] came out at 8%; in assay [20], 92%; in assay [21] it was 15%; in assay [22], 85%; in [23] it was 88%; in [24], 12%. The H2L2:H2L1 median scalar value in [20] is 2.55 ln; in assay [22], 1.72 ln(ratio); in assay [23], 2.03 ln(ratio).
For Pertuzumab Fab heavy chain V177I_S188K, the results for the H2L2:H2L1 normalized median scalar value ln(r1/f1) in assay [25] and in assay [26] were 2.3 and 2.15, respectively. For the same substance, the H2L2:H2L1 normalized median ratio in [27] is 9%.
For the substance “Pertuzumab heavy chain Fab construct L143I_S186K”, the H2L2:H2L1 normalized median scalar value ln(r1/f1) in assay [28] worked out at 0.36; in [29], 0.81; in assay [30] it was 0.26; in [31], 0.76; in assay [32], 0.92; in [33], 1.5. The H2L2:H2L1 normalized median scalar value ln(r1/f1) in assay [37] is 1.18; in [38], 1.6. Further, the figures for the H2L2:H2L1 normalized median ratio (H2L1 share) in [34], in assay [35] and in [36] were 28%, 31% and 17%, respectively.
With “Pertuzumab heavy chain Fab construct S186K”, the H2L2:H2L1 normalized median scalar value ln(r1/f1) amounted to 0.22 in assay [28]; 0.41 in [29]; 0.02 in [30]; 0.22 in [31]; 0.77 in assay [32]; 1.05 in assay [33]. Besides, the H2L2:H2L1 normalized median scalar value ln(r1/f1) in assay [37] amounted to 0.82; in assay [38], 1.27. Further, the H2L2:H2L1 normalized median ratio (H2L1 share) stood at 31% in [39], 22% in assay [36] and 26% in [40].
Turning to “Pertuzumab heavy chain Fab construct S188K”, the H2L2:H2L1 normalized median scalar value ln(r1/f1) in [41] came to 1.41; in assay [42] it was 2.67; in [43], 1.5; in assay [44], 2.71; in assay [45], 2.22; in assay [46] it was 1.67. Moreover, the H2L2:H2L1 normalized median scalar value ln(r1/f1) in assay [47] came out at 2.75; in assay [48], 2.33.
Turning to “Pertuzumab heavy chain Fab construct V177I_S188K”, the H2L2:H2L1 normalized median scalar value ln(r1/f1) in assay [49] stood at 0.55; in assay [50], 1.64; in assay [51], 1.83; in [52], 2.15; in assay [53] it was 2.3; in assay [54], 2.58. Also, the values for the H2L2:H2L1 normalized median scalar value ln(r1/f1) in assay [55] and in assay [56] were 2.63 and 2.38, respectively.
